Top (MFI) data for 1 substance are collected here from patent US20240325555A1.

The target of experiment [1] is T1, rat LIV-1 (rat) (UniProt Q4V887).
T1 sequence (looked up): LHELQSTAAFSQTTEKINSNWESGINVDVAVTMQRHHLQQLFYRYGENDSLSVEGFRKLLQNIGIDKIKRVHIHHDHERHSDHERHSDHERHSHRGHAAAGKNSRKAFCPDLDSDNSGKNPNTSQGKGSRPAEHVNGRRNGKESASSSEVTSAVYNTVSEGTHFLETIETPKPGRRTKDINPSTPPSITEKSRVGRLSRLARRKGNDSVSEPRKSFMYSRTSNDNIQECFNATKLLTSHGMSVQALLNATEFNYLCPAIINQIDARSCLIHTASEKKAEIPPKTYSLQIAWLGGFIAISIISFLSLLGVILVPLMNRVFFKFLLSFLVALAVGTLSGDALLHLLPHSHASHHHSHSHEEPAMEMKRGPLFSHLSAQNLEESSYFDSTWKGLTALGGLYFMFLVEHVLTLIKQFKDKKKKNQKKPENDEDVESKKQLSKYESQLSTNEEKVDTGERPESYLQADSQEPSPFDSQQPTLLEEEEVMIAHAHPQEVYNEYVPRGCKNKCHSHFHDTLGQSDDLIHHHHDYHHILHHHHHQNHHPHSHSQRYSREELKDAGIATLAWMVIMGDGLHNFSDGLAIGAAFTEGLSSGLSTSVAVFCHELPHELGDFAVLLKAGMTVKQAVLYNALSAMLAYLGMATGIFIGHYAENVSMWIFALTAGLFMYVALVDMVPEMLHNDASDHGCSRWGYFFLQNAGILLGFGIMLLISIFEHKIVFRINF
As to the kind of experiment: FACS, HEK293/Rat_LIV-1 cells.

Experiment [2] concerns the target T2, mouse LIV-1 (mouse) (UniProt Q8C145).
T2 sequence (looked up): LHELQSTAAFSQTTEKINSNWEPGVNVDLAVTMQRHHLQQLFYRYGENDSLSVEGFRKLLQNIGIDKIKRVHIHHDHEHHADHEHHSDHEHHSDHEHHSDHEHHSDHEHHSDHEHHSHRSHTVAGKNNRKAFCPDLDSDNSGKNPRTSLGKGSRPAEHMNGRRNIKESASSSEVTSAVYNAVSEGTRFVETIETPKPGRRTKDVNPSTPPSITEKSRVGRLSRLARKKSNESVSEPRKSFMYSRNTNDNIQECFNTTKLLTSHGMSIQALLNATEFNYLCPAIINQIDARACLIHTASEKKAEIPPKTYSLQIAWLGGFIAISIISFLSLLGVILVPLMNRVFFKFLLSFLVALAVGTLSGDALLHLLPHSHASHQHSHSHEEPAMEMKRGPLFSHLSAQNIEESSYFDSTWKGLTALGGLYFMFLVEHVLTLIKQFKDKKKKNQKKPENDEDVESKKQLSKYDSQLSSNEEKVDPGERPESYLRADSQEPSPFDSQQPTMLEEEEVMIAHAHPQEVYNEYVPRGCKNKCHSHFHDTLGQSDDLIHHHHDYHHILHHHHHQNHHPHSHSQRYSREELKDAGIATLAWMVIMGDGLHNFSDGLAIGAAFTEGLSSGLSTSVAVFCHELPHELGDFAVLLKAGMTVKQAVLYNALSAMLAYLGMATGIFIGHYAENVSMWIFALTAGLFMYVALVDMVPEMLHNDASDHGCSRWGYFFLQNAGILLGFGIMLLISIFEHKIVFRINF
Nature of the experiment: FACS, HEK293/Mouse_LIV-1 cells. In general terms: A flow cytometer gives signals particle by particle.

On to hIgG1 Isotype (antibody), for which the Top (MFI) came out at 119 MFI in experiment [1] and 114 MFI in experiment [2].
